The values below come from patent WO2018038096A1.

In experiment [1] the target is HA of A/California/04/2009 (H1N1pdm09) (influenza A virus A/California/04/2009 (H1N1pdm09)).
Experiment [2] addresses HA of Perth/16 (H3N2) virus (influenza A virus A/Perth/16/2009 (H3N2)). Briefly: cell-based or functional assay.
Experiment [3] deals with HA of A/California/04/2009 (H1N1pdm09) (influenza A virus A/California/04/2009 (H1N1pdm09)). Briefly: cell-based or functional assay.
Experiment [4] addresses three viruses, CA04, Egypt, and Anhui/1. The experiment can be described thus: cell-based or functional assay.
For experiment [5], the target named is recombinant HA protein of Egypt (H5N1 type) (influenza A virus, 'Egypt' (H5N1)).
The target of experiment [6] is recombinant HA protein of A/California/07/2009 (H1N1pdm09) (influenza A virus A/California/07/2009 (H1N1pdm09)).
Experiment [7] has as its target recombinant HA protein of A/Perth/16/2009 (H3N2) (influenza A virus A/Perth/16/2009 (H3N2)).
The target of experiment [8] is recombinant HA protein of A/Netherland/219/2003 (H7N7) (influenza A virus A/Netherland/219/2003 (H7N7)).

Consider CR9114 (antibody), for which the apparent rate constant k obs, fold over that of S9-1-10/5-1 in experiment [1] was 11.6 fold. Besides, the IC 50, neutralization test 1 (Pre), CPE on MDCK cells in experiment [2] was found to be 25 µg/mL; in experiment [3] it was 7.4 µg/mL.

B1: S9-1-10/5-1 (antibody, V domains shown)
VH: QLHLQESGPGLLKPSATLSLTCTVSGGSMNNYYWSWVRQAPGKGLEWIGYIFHSGSTNYSPPLKSRVTISIDTATNQFFLRLNSVTAADTAVYYCARMSRGVFSSSRFFGLDVWGRGTAVAVSS
VL: EIVLTQSPATLSVSPGERATLSCRASQSVASNLAWYQQKPGQAPRLLISAASTRATDIPARFSGSGSGTEFTLTISSLQSEDFAVYYCQQYNNWLSFTFGPGTKVDMKG
For orientation: Kd means the free concentration of one partner at which half of the binding sites on the other are occupied at equilibrium, for simple one-to-one binding. Turning to B1, the IC 50, neutralization test 2 (Post), CPE on MDCK cells in experiment [4] lay in the range of 0.55 to 8.8 µg/mL. For the same molecule, the Kd in experiment [5] was determined as 0.14 nM; in experiment [6], 8.5 pM; in experiment [7] it was 34 nM; in experiment [8] it was 0.9 nM.
